Reference: publication PMC12701072, “DNA Wrapping by a tetrameric bacterial histone”

Legend:
[1] = biological target: HLp from Leptospira perolatii (Leptospira perolatii); experiment: crystal structure; HLp-DNA_1: HLp co-crystallized with the 30-bp-GC40 DNA fragment, 2.10 Å; dimer in the asymmetric unit, tetramer by crystallographic symmetry
[2] = biological target: HLp from Leptospira perolatii (Leptospira perolatii); experiment: SEC-MALS; HLp alone; Superdex 75 Increase 10/300 GL, 25 mM Tris, 50 mM NaCl, 50 mM KCl, pH 7.5; samples incubated at 37 °C for 10 min; oligomer in solution
[3] = biological target: HLp from Leptospira perolatii (Leptospira perolatii); experiment: crystal structure; HLp-DNA_2: HLp co-crystallized with the 30-bp-GC40 DNA fragment, 1.90 Å; monomer in the asymmetric unit, tetramer by crystallographic symmetry
[4] = biological target: HLp from Leptospira perolatii (Leptospira perolatii); experiment: crystal structure; DNA-free HLp, 1.30 Å, molecular replacement; dimer in the asymmetric unit, tetramer by crystallographic symmetry
[5] = biological target: HLp from Leptospira perolatii (Leptospira perolatii); experiment: SEC-MALS; HLp incubated with the 30-bp-GC40 DNA fragment at a protein-to-DNA molar ratio of 2:1, 37 °C for 10 min; Superdex 75 Increase 10/300 GL, 25 mM Tris, 50 mM NaCl, 50 mM KCl, pH 7.5
[6] = biological target: HMfB (Methanothermus fervidus, UniProt P19267 1-69); experiment: MST; EMSA: 25 mM Tris pH 8.0, 50 mM NaCl, 50 mM KCl, 37 C 10 min; MST: 20 mM Tris pH 8.0, 150 mM NaCl, measured at 25 C (HLp 10 nM DNA, HMfB 20 nM DNA); details: protein: recombinant; chain copies: 4; label: 5'-Cy5 on strand 1; blunt
[7] = biological target: T1, HLp (Leptospira perolatii, UniProt A0A2M9ZN55 1-63); experiment: MST; 20 mM Tris pH 8.0, 150 mM NaCl; EMSA: 25 mM Tris pH 8.0, 50 mM NaCl, 50 mM KCl, 37 C 10 min; MST: 20 mM Tris pH 8.0, 150 mM NaCl, measured at 25 C (HLp 10 nM DNA, HMfB 20 nM DNA); details: protein: recombinant; tags: N-terminal His6, cleaved with TEV protease; chain copies: 4; label: 5'-Cy5 on strand 1; blunt
T1 sequence: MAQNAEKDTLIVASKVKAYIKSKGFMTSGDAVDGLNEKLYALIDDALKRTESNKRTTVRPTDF

[8] = biological target: T1, HLp; experiment: SEC-MALS; complex 69.2 +/- 5.7 kDa: one tetramer with two duplexes; EMSA: 25 mM Tris pH 8.0, 50 mM NaCl, 50 mM KCl, 37 C 10 min; MST: 20 mM Tris pH 8.0, 150 mM NaCl, measured at 25 C (HLp 10 nM DNA, HMfB 20 nM DNA); details: protein: recombinant; tags: N-terminal His6, cleaved with TEV protease; chain copies: 4; blunt

Chain of HMfB (P19267 whole entry): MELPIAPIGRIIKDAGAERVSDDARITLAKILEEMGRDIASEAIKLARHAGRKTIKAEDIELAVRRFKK

## HLp from Leptospira perolatii (natural protein)
[1]
  stoichiometry N: 4
[2]
  stoichiometry N: 4
[3]
  stoichiometry N: 4
[4]
  stoichiometry N: 4
[5]
  stoichiometry N: 4

B1: 80-bp-GC40 [Cy5] (dsDNA)
DNA 1: TTTAAAGCCGTTTAAAGCCGTTTAAAGCCGTTTAAAGCCGTTTAAAGCCGTTTAAAGCCGTTTAAAGCCGTTTAAAGCCG
DNA 2: CGGCTTTAAACGGCTTTAAACGGCTTTAAACGGCTTTAAACGGCTTTAAACGGCTTTAAACGGCTTTAAACGGCTTTAAA
[6]
  Kd: 310 ± 80 nM
[7]
  Kd: 1240 ± 140 nM

B2: 30-bp-GC40 (dsDNA)
DNA 1: TTTAAAGCCGTTTAAAGCCGTTTAAAGCCG
DNA 2: CGGCTTTAAACGGCTTTAAACGGCTTTAAA
[8]
  binding result: binds

B3: 80-bp DNA [Cy5] (dsDNA)
DNA 1: CCGTACTGTCGTCTGCGGCCTTTGATTATCAATTAAAGCGTTCTACGGCGTTTTTGATCGCTCAACGTGCGGAGCTAGAT
DNA 2: ATCTAGCTCCGCACGTTGAGCGATCAAAAACGCCGTAGAACGCTTTAATTGATAATCAAAGGCCGCAGACGACAGTACGG
[6]
  Kd: 580 ± 130 nM
[7]
  Kd: 3180 ± 1060 nM
